Experimental data published in publication PMC11279923, “Assessment of Radiolabelled Derivatives of R954 for Detection of Bradykinin B1 Receptor in Cancer Cells: Studies on Glioblastoma Xenografts in Mice” (Pharmaceuticals, 2024).
Read-outs that look alike come from different tables or passages of the source. Non-standard residues stand in square brackets, D forms with d. Residues, ends and D or L forms follow the SMILES beside them. *: point of attachment. DOTA = O=C(O)CN1CCN(CC(=O)O)CCN(CC(=O)*)CCN(CC(=O)O)CC1; Oic = O=C(O)[C@@H]1C[C@@H]2CCCC[C@@H]2N1; d2Nal = N[C@H](Cc1ccc2ccccc2c1)C(=O)O; αMeF = C[C@](N)(Cc1ccccc1)C(=O)O; Orn = NCCC[C@H](N)C(=O)O; Ahx = NCCCCCC(=O)O

Experiments:
[1] = target: T1, B1R (Homo sapiens, UniProt P46663); test: Saturation binding assay with Scatchard analysis on U87MG cells; set-up: could detect B1R endogenously expressed in glioblastoma cells; host or cells: U87MG human glioblastoma cells (intact, adherent); conditions: tracer 0.7-358 nM, NSB with 100 µM R954, Scatchard analysis, mean of three independent experiments
T1 sequence (P46663 1-353): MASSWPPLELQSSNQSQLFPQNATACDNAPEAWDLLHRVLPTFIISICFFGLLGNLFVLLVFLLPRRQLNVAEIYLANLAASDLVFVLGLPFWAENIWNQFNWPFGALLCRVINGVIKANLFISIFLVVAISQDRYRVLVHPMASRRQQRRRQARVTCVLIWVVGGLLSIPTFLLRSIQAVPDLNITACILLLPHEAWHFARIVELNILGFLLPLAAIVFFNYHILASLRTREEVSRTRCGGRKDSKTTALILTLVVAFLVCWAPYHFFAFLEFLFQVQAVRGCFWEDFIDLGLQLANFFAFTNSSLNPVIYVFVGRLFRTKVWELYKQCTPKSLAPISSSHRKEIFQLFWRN
Procedure: The affinity of [^111In]In-DOTA-Ahx-R954 for B1R in the cells was measured using an R954 saturation assay with increasing concentrations of [^111In]In-DOTA-Ahx-R954 (range 0.7–358 nM). The Scatchard plot was used to estimate the Kd and Bmax values. The parameters were presented as means of three independent experiments (one assay performed on type I collagen-coated plates and two assays performed on Poly-D-Lysine plates).

[2] = test system: U87MG tumour xenografts; set-up: species or system BALBc nu/nu male mice; conditions: mouse, in vivo
Procedure: Five-week-old BALBc nu/nu male mice (Japan SLC, Inc., Hamamatsu, Japan) were xenografted by subcutaneous injection of U87MG cells (5 × 10^6 cells per 50 μL of culture medium) into their right hind legs. The mice were subjected to biodistribution studies when the tumour weight reached 0.1−0.5 g.
Mice bearing U87MG tumour xenografts were injected via the tail vein with 100 μL of [^111In]In-DOTA-Ahx-R954 (30–74 kBq; 0.01–0.02 nmol) and were sacrificed and dissected 1, 4, and 24 h after administration. […] R954 was co-injected with [^111In]In-DOTA-Ahx-R954, and mice were sacrificed and dissected 1 and 4 h after administration. The tissues of interest were removed and weighed, and radioactivity was determined using an auto-well gamma counter. The results are presented as a percentage of the injected dose per gram (% dose/g).

[3] = test system: B1R; conditions: B1R agonist; cited from earlier work
[4] = test system: U87MG cells; test: Blocking of [^111In]In-DOTA-Ahx-R954 cell accumulation by B1R antagonist or agonist; assay type: cell-based, human; conditions: 100 µM blocker, 120 min, n = 4
Procedure: (§1) Human glioblastoma cell lines U87MG and U251MG were obtained from the American Type Culture Collection (Manassas, VA, USA) and kept under standard cell culture conditions (5% CO2, 37 °C). Cells were cultured in Eagle’s minimum essential medium (E-MEM; FUJIFILM Wako Pure Chemical Co.) supplemented with 10% v/v foetal bovine serum (BioWest S.A.S, Nuaillé, France), 1% v/v nonessential amino acids (FUJIFILM Wako Pure Chemical Co.), 1 mM sodium pyruvate (FUJIFILM Wako Pure Chemical Co.), and 1% v/v penicillin–streptomycin (10,000 unit-10 mg/mL; FUJIFILM Wako Pure Chemical Co.). Cells were seeded at a density of 1 × 10^5 cells/well in Poly-D-Lysine 24-well plates (Corning Inc., Corning, NY, USA). After 24 h, the medium was removed, and the cells were washed with 500 μL of 0.01 M PBS (+) (FUJIFILM Wako Pure Chemical Co.) and incubated at 37 °C in 500 μL of Hanks Balanced Salt Solution (+) (HBSS (+); FUJIFILM Wako Pure Chemical Co.) for 10 min. […] The value at 0 min was determined by an assay performed using the same protocol as that used immediately after removing the incubation solution. Cell lysate radioactivity was measured using an auto-well gamma counter (2470 WIZARD^2; PerkinElmer, Inc., Shelton, CT, USA), and the protein content of the lysates was measured using a Pierce™ BCA protein assay kit (Thermo Fisher Scientific, Inc., Waltham, MA, USA). […]

[5] = test system: U251MG cells; test: as above; assay type: cell-based, human; conditions: 100 µM blocker, 120 min, n = 4
Procedure: as §1

[6] = target: T1, B1R; set-up: could detect B1R endogenously expressed in glioblastoma cells; host or cells: U87MG human glioblastoma cells (intact, adherent); conditions: lung fibroblast cell membrane; read-out: binding affinity (Kd); cited from earlier work
Source text: (§2) Our study has several potential limitations. […] Although we could not evaluate the diagnostic utility of [^111In]In-DOTA-Ahx-R954 by comparing it with previously reported probes for SPECT and PET using parameters obtained under the same experimental conditions, improving the ...

[7] = target: T1, B1R; set-up: could detect B1R endogenously expressed in glioblastoma cells; conditions: B1R+ HEK293T cell membrane; read-out: binding affinity (Kd); cited from earlier work
Source text: as §2

**Q.** With `CC[C@H](C)[C@H](NC(=O)[C@@H](Cc1ccc2ccccc2c1)NC(=O)[C@H](CO)NC(=O)[C@](C)(Cc1ccccc1)NC(=O)CNC(=O)[C@@H]1CCCN1C(=O)[C@@H]1C[C@@H]2CCCC[C@@H]2N1C(=O)[C@H](CCCNC(=N)N)NC(=O)[C@H](CCCN)NC(=O)CCCCCNC(=O)CN1CCN(CC(=O)O)CCN(CC(=O)O)CCN(CC(=O)O)CC1)C(=O)O` [[^111In]In-DOTA-Ahx-R954, metal not drawn] ({DOTA-Ahx}-[Orn]R[Oic]PG[αMeF]S[d2Nal]I-OH) as the compound, how does the Kd [1] read?
**A.** 54.1 ± 18.9 nM

**Q.** And the blood-brain barrier penetration [2]?
**A.** poor

**Q.** And the “reduction of radioactivity level in plasma compared to 1 h” value [2]?
**A.** 98%

**Q.** What about the “reduction of radioactivity level in tumour compared to 1 h” value [2] of the same compound?
**A.** 48%

**Q.** Which pEC50 [3] does the source give for [des-Arg^10]-kallidin here?
**A.** 9.7

**Q.** And the “change in accumulated radioactivity in blocking study” value [4]?
**A.** significant decrease

**Q.** What about the “change in accumulated radioactivity in blocking study” value [5] of the same compound?
**A.** not in U251MG cells

**Q.** With [^3H](des-Arg^10, Leu^9)-kallidin as the compound, how does the Kd [6] read?
**A.** 0.33 ± 0.07 nM

**Q.** What about the Kd [7] of the same compound?
**A.** 1.9 ± 0.5 nM
